Experimental data published in paper doi:10.1101/2020.04.27.064493.

Biological target: human DNMT1 fragment (residues 351-1600) (human) (UniProt P26358)
Experiment: ITC

Kd [µM] | Substance
0.017 | H3_(1-24)K9me3Ub2: H3 (1-24) K9me3 K18C/K23C peptide carrying two ubiquitin(G76C) through dichloroacetone linkage (from UniProt P68431;P0CG48) (complex)
0.091 | H3_(1-24)Ub2: H3 (1-24) K18C/K23C peptide carrying two ubiquitin(G76C) through dichloroacetone linkage (from UniProt P68431;P0CG48) (complex)
